Reference: patent publication US12467929

Columns and labels:
[1] = target: recombinant UBE3A protein (Homo sapiens (Human)) (UniProt Q05086); experiment: 2-step Simoa; capture MS 3E5; UBE3A 0.1 ng/ml
[2] = target: recombinant UBE3A protein (Homo sapiens (Human)) (UniProt Q05086); experiment: 2-step Simoa; capture MS 3E5; UBE3A 10 ng/ml
[3] = target: recombinant UBE3A protein (Homo sapiens (Human)) (UniProt Q05086); experiment: 3-step Simoa; capture MS 3E5; UBE3A 10 ng/ml
[4] = target: recombinant UBE3A protein (Homo sapiens (Human)) (UniProt Q05086); experiment: 3-step Simoa; capture MS 3E5; UBE3A 0.01 ng/ml
[5] = target: recombinant UBE3A protein (Homo sapiens (Human)) (UniProt Q05086); experiment: 2-step Simoa; capture MS 3E5; UBE3A 0.01 ng/ml
[6] = target: recombinant UBE3A protein (Homo sapiens (Human)) (UniProt Q05086); experiment: 3-step Simoa; capture MS 2F6; UBE3A 0.01 ng/ml
[7] = target: recombinant UBE3A protein (Homo sapiens (Human)) (UniProt Q05086); experiment: 3-step Simoa; capture MS 3E5; UBE3A 0.1 ng/ml
[8] = target: recombinant UBE3A protein (Homo sapiens (Human)) (UniProt Q05086); experiment: 3-step Simoa; capture MS 3E5; UBE3A 1 ng/ml
[9] = target: recombinant UBE3A protein (Homo sapiens (Human)) (UniProt Q05086); experiment: 2-step Simoa; capture MS 3E5; UBE3A 1 ng/ml
[10] = target: recombinant UBE3A protein (Homo sapiens (Human)) (UniProt Q05086); experiment: Simoa head-to-head, Table 10; capture GTX; UBE3A 0.032 ng/ml
[11] = target: recombinant UBE3A protein (Homo sapiens (Human)) (UniProt Q05086); experiment: Simoa head-to-head, Table 10; capture GTX; UBE3A 4.00 ng/ml
[12] = target: recombinant UBE3A protein (Homo sapiens (Human)) (UniProt Q05086); experiment: Simoa head-to-head, Table 10; capture GTX; UBE3A 500 ng/ml
[13] = target: recombinant UBE3A protein (Homo sapiens (Human)) (UniProt Q05086); experiment: Simoa head-to-head, Table 10; capture GTX; UBE3A 100 ng/ml
[14] = target: recombinant UBE3A protein (Homo sapiens (Human)) (UniProt Q05086); experiment: Simoa head-to-head, Table 10; capture GTX; UBE3A 0.80 ng/ml
[15] = target: recombinant UBE3A protein (Homo sapiens (Human)) (UniProt Q05086); experiment: Simoa head-to-head, Table 10; capture GTX; UBE3A 20.0 ng/ml
[16] = target: recombinant UBE3A protein (Homo sapiens (Human)) (UniProt Q05086); experiment: Simoa head-to-head, Table 10; capture GTX; UBE3A 0.16 ng/ml
[17] = target: recombinant UBE3A protein (Homo sapiens (Human)) (UniProt Q05086); experiment: Simoa head-to-head, Table 11; capture GTX; UBE3A 100 ng/ml
[18] = target: recombinant UBE3A protein (Homo sapiens (Human)) (UniProt Q05086); experiment: Simoa; capture GTX, no helper beads; 3E5 0.4 ug/ml; UBE3A 0.00128 ng/ml
[19] = target: recombinant UBE3A protein (Homo sapiens (Human)) (UniProt Q05086); experiment: Simoa; capture GTX; 3E5 0.2 ug/ml; UBE3A 0.00128 ng/ml
[20] = target: recombinant UBE3A protein (Homo sapiens (Human)) (UniProt Q05086); experiment: Simoa; capture GTX + helper beads; 3E5 0.2 ug/ml; UBE3A 0.00640 ng/ml
[21] = target: recombinant UBE3A protein (Homo sapiens (Human)) (UniProt Q05086); experiment: Simoa; capture GTX; 3E5 0.1 ug/ml; UBE3A 0.00640 ng/ml

UniProt Q05086, sequence (Q05086 whole entry): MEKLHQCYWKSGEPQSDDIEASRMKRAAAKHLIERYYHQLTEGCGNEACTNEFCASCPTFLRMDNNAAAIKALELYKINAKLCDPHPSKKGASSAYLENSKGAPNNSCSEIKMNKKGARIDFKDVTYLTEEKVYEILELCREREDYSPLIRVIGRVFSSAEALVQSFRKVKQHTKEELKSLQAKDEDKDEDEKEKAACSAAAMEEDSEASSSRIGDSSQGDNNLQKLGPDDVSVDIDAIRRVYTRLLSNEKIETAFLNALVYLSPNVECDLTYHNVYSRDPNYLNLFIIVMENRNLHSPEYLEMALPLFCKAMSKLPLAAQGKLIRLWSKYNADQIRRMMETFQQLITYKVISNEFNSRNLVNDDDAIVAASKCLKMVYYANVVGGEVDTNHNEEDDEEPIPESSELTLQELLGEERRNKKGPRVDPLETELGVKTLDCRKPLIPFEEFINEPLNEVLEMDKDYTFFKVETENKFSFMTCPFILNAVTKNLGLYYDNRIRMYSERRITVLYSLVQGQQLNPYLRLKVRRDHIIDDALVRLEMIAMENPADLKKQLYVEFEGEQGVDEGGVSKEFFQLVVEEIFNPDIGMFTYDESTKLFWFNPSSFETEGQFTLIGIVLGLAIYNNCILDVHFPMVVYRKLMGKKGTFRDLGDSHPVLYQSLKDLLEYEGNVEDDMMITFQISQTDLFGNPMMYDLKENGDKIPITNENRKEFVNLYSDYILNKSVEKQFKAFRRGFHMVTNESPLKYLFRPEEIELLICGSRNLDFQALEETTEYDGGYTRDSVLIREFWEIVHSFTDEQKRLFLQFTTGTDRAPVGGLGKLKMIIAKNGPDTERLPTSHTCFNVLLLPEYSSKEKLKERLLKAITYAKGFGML

GTX101092 (GeneTex) (antibody)
AEB1 [1]: 0.161
AEB2 [1]: 0.149
Ave AEB [1]: 0.155
Signal to Background [1]: 1.1
AEB1 [2]: 0.407
AEB2 [2]: 0.385
Ave AEB [2]: 0.396
Signal to Background [2]: 2.8
AEB1 [3]: 0.151
AEB2 [3]: 0.145
Ave AEB [3]: 0.148
Signal to Background [3]: 2.77
AEB1 [4]: 0.0515
AEB2 [4]: 0.05
Ave AEB [4]: 0.0508
Signal to Background [4]: 0.946
AEB1 [5]: 0.129
AEB2 [5]: 0.134
Ave AEB [5]: 0.132
Signal to Background [5]: 0.931
AEB1 [6]: 0.0162
AEB2 [6]: 0.0191
Ave AEB [6]: 0.0176
Signal to Background [6]: 0.94
AEB1 [7]: 0.0546
AEB2 [7]: 0.06
Ave AEB [7]: 0.0573
Signal to Background [7]: 1.07
AEB1 [8]: 0.0655
AEB2 [8]: 0.0625
Ave AEB [8]: 0.064
Signal to Background [8]: 1.19
AEB1 [9]: 0.159
AEB2 [9]: 0.165
Ave AEB [9]: 0.162
Signal to Background [9]: 1.15

NB500-240 (Novus) (antibody)
AEB1 [1]: 0.009
AEB2 [1]: 0.0091
Ave AEB [1]: 0.009
Signal to Background [1]: 1.21
AEB1 [10]: 0.0035
AEB2 [10]: 0.0027
Ave AEB [10]: 0.0031
Signal to Background [10]: 1.49
AEB1 [2]: 0.15
AEB2 [2]: 0.14
Ave AEB [2]: 0.145
Signal to Background [2]: 19.5
AEB1 [11]: 0.0402
AEB2 [11]: 0.0398
Ave AEB [11]: 0.04
Signal to Background [11]: 19.2
AEB1 [3]: 0.0157
AEB2 [3]: 0.0129
Ave AEB [3]: 0.0143
Signal to Background [3]: 4.29
AEB1 [4]: 0.0038
AEB2 [4]: 0.0032
Ave AEB [4]: 0.0035
Signal to Background [4]: 1.05
AEB1 [5]: 0.0065
AEB2 [5]: 0.007
Ave AEB [5]: 0.0068
Signal to Background [5]: 0.908
AEB1 [6]: 0.0086
AEB2 [6]: 0.0101
Ave AEB [6]: 0.0093
Signal to Background [6]: 1.07
AEB1 [7]: 0.0026
AEB2 [7]: 0.0025
Ave AEB [7]: 0.0025
Signal to Background [7]: 0.765
AEB1 [12]: 0.282
AEB2 [12]: 0.309
Ave AEB [12]: 0.296
Signal to Background [12]: 142
AEB1 [13]: 0.293
AEB2 [13]: 0.288
Ave AEB [13]: 0.291
Signal to Background [13]: 140
AEB1 [14]: 0.0085
AEB2 [14]: 0.0124
Ave AEB [14]: 0.0105
Signal to Background [14]: 5.03
AEB1 [8]: 0.004
AEB2 [8]: 0.0047
Ave AEB [8]: 0.0044
Signal to Background [8]: 1.31
AEB1 [15]: 0.132
AEB2 [15]: 0.131
Ave AEB [15]: 0.132
Signal to Background [15]: 63.2
AEB1 [16]: 0.0038
AEB2 [16]: 0.004
Ave AEB [16]: 0.0039
Signal to Background [16]: 1.88
AEB1 [9]: 0.0227
AEB2 [9]: 0.0226
Ave AEB [9]: 0.0226
Signal to Background [9]: 3.04

anti-UBE3A antibody 3E5 (SAB1404508-100 ug, Millipore-Sigma)
AEB1 [10]: 0.031
AEB2 [10]: 0.0329
Ave AEB [10]: 0.0319
Signal to Background [10]: 1.41
AEB1 [11]: 0.361
AEB2 [11]: 0.362
Ave AEB [11]: 0.361
Signal to Background [11]: 15.9
AEB1 [17]: 3.35
AEB2 [17]: 3.51
Ave AEB [17]: 3.43
Signal to Background [17]: 419
AEB1 [18]: 0.0195
AEB2 [18]: 0.0213
Average AEB [18]: 0.0204
Signal to Background [18]: 1.04
AEB1 [19]: 0.0457
AEB2 [19]: 0.0439
AEB3 [19]: 0.0421
Average AEB [19]: 0.0439
Signal to Background [19]: 1.12
AEB1 [12]: 12.3
AEB2 [12]: 11.6
Ave AEB [12]: 11.9
Signal to Background [12]: 526
AEB1 [20]: 0.0133
AEB2 [20]: 0.0127
Average AEB [20]: 0.013
Signal to Background [20]: 1.34
AEB1 [13]: 4.3
AEB2 [13]: 4.08
Ave AEB [13]: 4.19
Signal to Background [13]: 184
AEB1 [21]: 0.0251
AEB2 [21]: 0.0238
AEB3 [21]: 0.0256
Average AEB [21]: 0.0248
Signal to Background [21]: 1.29
AEB1 [14]: 0.144
AEB2 [14]: 0.14
Ave AEB [14]: 0.142
Signal to Background [14]: 6.24
AEB1 [15]: 2.26
AEB2 [15]: 2.45
Ave AEB [15]: 2.35
Signal to Background [15]: 104
AEB1 [16]: 0.0558
AEB2 [16]: 0.0571
Ave AEB [16]: 0.0564
Signal to Background [16]: 2.48
